Laboratory results reported in paper PMC3585134.

Tests used:
[1] = target: AIP56^1–285 (N-terminal domain of AIP56, apoptosis-inducing protein of 56 kDa) (Photobacterium damselae piscicida); assay: reducing and non-reducing SDS-PAGE; purified AIP56^1–285 and AIP56^286–497, each alone, run with and without DTT (Figure S5A); dimers held by a disulphide formed on oxidation
[2] = target: AIP56^1–285 (N-terminal domain of AIP56, apoptosis-inducing protein of 56 kDa) (Photobacterium damselae piscicida); assay: reducing and non-reducing SDS-PAGE; reconstituted AIP56: AIP56^1–285 and AIP56^286–497 mixed in equimolar amounts in 8 M urea, 1 mM DTT, refolded by extensive dialysis against sbPBS; run with and without DTT (Figure S6A)
[3] = target: AIP56^286–497 (C-terminal domain of AIP56, apoptosis-inducing protein of 56 kDa) (Photobacterium damselae piscicida); assay: reducing and non-reducing SDS-PAGE; purified AIP56^1–285 and AIP56^286–497, each alone, run with and without DTT (Figure S5A); dimers held by a disulphide formed on oxidation
[4] = target: AIP56^286–497 (C-terminal domain of AIP56, apoptosis-inducing protein of 56 kDa) (Photobacterium damselae piscicida); assay: reducing and non-reducing SDS-PAGE; reconstituted AIP56: AIP56^1–285 and AIP56^286–497 mixed in equimolar amounts in 8 M urea, 1 mM DTT, refolded by extensive dialysis against sbPBS; run with and without DTT (Figure S6A)

Substance | stoichiometry N [1] | stoichiometry N [2] | stoichiometry N [3] | stoichiometry N [4]
AIP56^1–285 (N-terminal domain of AIP56, apoptosis-inducing protein of 56 kDa) (domain or fragment) | 2 | 2 | – | –
AIP56^286–497 (C-terminal domain of AIP56, apoptosis-inducing protein of 56 kDa) (domain or fragment) | – | – | 2 | 2
